For ten molecules, IC50, binding result and EC50 results are on record in patent US20220195052A1 (Biogen, published 2022).

Numbering of substitutions follows the chain as printed.

The labels stand for the following.
B1: Exemplary Antibody 17 (antibody, V domains shown)
VH: EVQLVQSGAEVKKPGESLKISCKGSGYSFTSYWIGWVRQMPGKGLEWMGIIYPGDSDTRYSPSFQGQVTISADKSISTAYLQWSSLKASDTAMYYCARGPRSRGDGPSNYYYMDVWGQGTLVTVSS
VL: DIQMTQSPSTLSASVGDRVTITCRASQSISSWLAWYQQKPGKAPKLLIYKASSLESGVPSRFSGSGSGTEFTLTISSLQPDDFATYYCQQYRPLPPTFGGGTKVEIK
notes: expressed in yeast (Adimab platform) and purified on protein A; also called Ex. Ab 17
B2: Exemplary Antibody 19 (antibody, V domains shown)
VH: QVQLVESGGGVVQPGRSLRLSCAASGFTFSSYGMHWVRQAPGKGLEWVAVISYDGSNKYYADSVKGRFTISRDNSKNTLYLQMNSLRAEDTAVYYCARGGPTRGDGTRVYYYGMDVWGQGTTVTVSS
VL: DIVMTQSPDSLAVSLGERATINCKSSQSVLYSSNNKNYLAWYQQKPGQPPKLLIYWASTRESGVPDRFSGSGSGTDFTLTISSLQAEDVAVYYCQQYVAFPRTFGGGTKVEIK
notes: expressed in yeast (Adimab platform) and purified on protein A; also called Ex. Ab 19
B3: Exemplary Antibody 14 (antibody, V domains shown)
VH: QVQLVESGGGLVKPGGSLRLSCAASGFTFSDYYMSWIRQAPGKGLEWVSYISSSGSTIYYADSVKGRFTISRDNAKNSLYLQMNSLRAEDTAVYYCARERGNRGDTPRYYYMDVWGKGTTVTVSS
VL: DIQMTQSPSSLSASVGDRVTITCRASQSISRYLNWYQQKPGKAPKLLIYAASSLQSGVPSRFSGSGSGTDFTLTISSLQPEDFATYYCQQSLVTPFTFGGGTKVEIK
notes: expressed in yeast (Adimab platform) and purified on protein A; also called Ex. Ab 14
B4: Exemplary Antibody 4 (antibody, V domains shown)
VH: QVQLVESGGGLVQPGGSLRLSCAASGFTFTSYYMHWVRQAPGQGLEWMGIINPSGGSTSYAQKFQGRVTMTRDTSTSTVYMELSSLRSEDTAVYYCARQQRHRRDYDYYYGMDVWGQGTTVTVSS
VL: EIVLTQSPGTLSLSPGERATLSCRASQSVSSDYLAWYQQKPGQAPRLLIYGASRRATGIPDRFSGSGSGTDFTLTISRLEPEDFAVYYCQQAYSLPPTFGGGTKVEIK
notes: expressed in yeast (Adimab platform) and purified on protein A; also called Ex. Ab 4
B5: Exemplary Antibody 6 (antibody, V domains shown)
VH: QVQLVESGGGLVKPGGSLRLSCAASGFTFSDYYMSWIRQAPGKGLEWVSYISSSGSTIYYADSVKGRFTISRDNAKNSLYLQMNSLRAEDTAVYYCARGGRNRGDSSLSGIDVWGQGTTVTVSS
VL: DIQMTQSPSSLSASVGDRVTITCRASQSINSYLNWYQQKPGKAPKLLIYAASSLQSGVPSRFSGSGSGTDFTLTISSLQPEDFATYYCQQQYSDITFGGGTKVEIK
notes: expressed in yeast (Adimab platform) and purified on protein A; also called Ex. Ab 6
B6: Exemplary Antibody 20 (antibody, V domains shown)
VH: B5 VH with R101P, N102S, S106A, S107L, L108A, S109E, G110Y, I111F, D112Q, V113H
VL: EIVLTQSPATLSLSPGERATLSCRASQSVSRYLAWYQQKPGQAPRLLIYDASNRATGIPARFSGSGSGTDFTLTISSLEPEDFAVYYCQQLSLHPPYTFGGGTKVEIK
notes: expressed in yeast (Adimab platform) and purified on protein A; also called Ex. Ab 20
B7: Exemplary Antibody 13 (antibody, V domains shown)
VH: B5 VH with R101P, N102S, S106A, S107L, L108A, S109E, G110Y, I111F, D112Q, V113H
VL: EIVMTQSPATLSVSPGERATLSCRASQSVSSNLAWYQQKPGQAPRLLIYGASTRATGIPARFSGSGSGTEFTLTISSLQSEDFAVYYCQQLTNHPPIAFGGGTKVEIK
notes: expressed in yeast (Adimab platform) and purified on protein A; also called Ex. Ab 13
B8: Exemplary Antibody 7 (antibody, V domains shown)
VH: B5 VH with R101P, N102S, S106A, S107L, L108A, S109E, G110Y, I111F, D112Q, V113H
VL: B7 VL with T92V, H94Y, A98T
notes: expressed in yeast (Adimab platform) and purified on protein A; also called Ex. Ab 7
B9: Exemplary Antibody 5 (antibody, V domains shown)
VH: B2 VH with Q1E, S30K, S31Y, V50S, S52W, Y59K
VL: EIVMTQSPATLSVSPGERATLSCRASQSVSSNLAWYQQKPGQAPRLLIYSASTRATGIPARFSGSGSGTEFTLTISSLQSEDFAVYYCQQYYHHPFTFGGGTKVEIK
notes: expressed in yeast (Adimab platform) and purified on protein A; also called Ex. Ab 5
B10: Exemplary Antibody 18 (antibody, V domains shown)
VH: QVQLVQSGAEVKKPGASVKVSCKASGYTFRSFYMHWVRQAPGQGLEWMGVINPSLGSTGYAQKFQGRVTMTRDTSTSTVYMELSSLRSEDTAVYYCARETNYYRGGPAFDIWGQGTMVTVSS
VL: not shown
notes: expressed in yeast (Adimab platform) and purified on protein A; also called Ex. Ab 18

T1 sequence (P06756 31-1048 limits assumed, chain 1 of 2): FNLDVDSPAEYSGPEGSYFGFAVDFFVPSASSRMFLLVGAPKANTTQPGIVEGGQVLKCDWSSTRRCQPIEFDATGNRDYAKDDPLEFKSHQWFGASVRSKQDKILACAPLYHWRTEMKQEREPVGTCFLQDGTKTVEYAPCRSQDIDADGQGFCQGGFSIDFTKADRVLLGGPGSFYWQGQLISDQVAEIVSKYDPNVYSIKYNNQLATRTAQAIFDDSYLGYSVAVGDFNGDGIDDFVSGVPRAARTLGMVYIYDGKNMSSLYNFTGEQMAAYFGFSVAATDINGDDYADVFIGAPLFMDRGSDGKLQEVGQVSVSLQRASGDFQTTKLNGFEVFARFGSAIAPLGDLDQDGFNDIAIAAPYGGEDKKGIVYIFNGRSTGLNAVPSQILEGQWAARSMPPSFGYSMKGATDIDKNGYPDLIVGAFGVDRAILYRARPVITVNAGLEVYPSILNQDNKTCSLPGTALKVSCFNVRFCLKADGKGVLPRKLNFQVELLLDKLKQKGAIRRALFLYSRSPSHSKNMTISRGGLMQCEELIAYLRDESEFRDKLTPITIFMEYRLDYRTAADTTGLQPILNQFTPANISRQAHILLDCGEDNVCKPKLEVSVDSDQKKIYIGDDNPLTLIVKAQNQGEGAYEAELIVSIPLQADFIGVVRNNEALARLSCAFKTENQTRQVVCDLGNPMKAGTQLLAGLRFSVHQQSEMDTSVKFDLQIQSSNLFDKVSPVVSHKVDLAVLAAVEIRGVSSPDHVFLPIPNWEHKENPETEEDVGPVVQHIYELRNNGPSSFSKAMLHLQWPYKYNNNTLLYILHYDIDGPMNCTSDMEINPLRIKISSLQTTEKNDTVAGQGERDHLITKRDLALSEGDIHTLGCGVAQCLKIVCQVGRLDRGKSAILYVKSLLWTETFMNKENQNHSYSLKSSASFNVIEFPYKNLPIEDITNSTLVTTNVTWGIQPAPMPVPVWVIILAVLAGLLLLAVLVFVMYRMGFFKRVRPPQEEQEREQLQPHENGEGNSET
T1 sequence (P05556 21-798 limits assumed, chain 2 of 2): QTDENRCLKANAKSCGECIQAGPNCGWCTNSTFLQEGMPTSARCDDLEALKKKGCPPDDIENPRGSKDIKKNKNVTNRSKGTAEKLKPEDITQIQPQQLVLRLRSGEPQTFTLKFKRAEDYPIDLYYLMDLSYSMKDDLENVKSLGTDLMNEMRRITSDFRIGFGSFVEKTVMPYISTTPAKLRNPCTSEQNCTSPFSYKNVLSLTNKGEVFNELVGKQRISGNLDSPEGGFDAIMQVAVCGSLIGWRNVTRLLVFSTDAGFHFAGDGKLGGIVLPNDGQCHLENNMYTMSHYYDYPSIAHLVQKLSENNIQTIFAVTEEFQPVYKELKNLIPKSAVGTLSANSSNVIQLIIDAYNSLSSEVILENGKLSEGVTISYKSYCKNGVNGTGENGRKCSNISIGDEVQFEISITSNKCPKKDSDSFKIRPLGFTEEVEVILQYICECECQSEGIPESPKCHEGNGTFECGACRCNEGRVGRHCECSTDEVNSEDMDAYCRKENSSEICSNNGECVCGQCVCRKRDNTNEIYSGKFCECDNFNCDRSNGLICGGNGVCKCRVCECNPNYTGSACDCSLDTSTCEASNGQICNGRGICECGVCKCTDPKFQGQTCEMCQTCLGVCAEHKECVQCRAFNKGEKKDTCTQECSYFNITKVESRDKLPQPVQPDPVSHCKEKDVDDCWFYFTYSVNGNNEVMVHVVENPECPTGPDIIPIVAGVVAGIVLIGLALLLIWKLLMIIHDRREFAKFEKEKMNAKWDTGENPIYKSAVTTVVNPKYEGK

The first assay addresses T1, human αvβ1 integrin on cells (human, UniProt P06756 31-1048; P05556 21-798).
T1 construct: also called stably transfected human αvβ1 cells; αvβ1 on MRC9 human lung fibroblasts
The experiment in a line: inhibition of adhesion of BCECF-labelled αvβ1-transfected cells to plate-coated LAP. As to the method: (§1) The plate was washed twice with PBS (200 μl/well), blocked with 1% BSA in PBS (200 μl/well) for 1 h at room temperature, and washed thrice with 200 μl/well of assay buffer (TBS, 2 mM Glucose, 0.1% BSA, 1 mM CaCl₂) and 1 mM MgCl₂, pH 7.4). Stably transfected human αvβ1 cells were removed from cell suspension and centrifuged at 1100 rpm for 5 mins. The pellet was resuspended in RPMI 1640, 1% BSA buffer and incubated with 2 μM fluorescent dye (BCECF, Molecular Probes, Eugene, Oreg.) in a 37° C. incubator for 30 min. The labeled cells were washed twice by centrifugation at 1100 rpm for 5 min and resuspended in assay buffer to 0.8×10⁶ cells/ml. To individual wells of the washed plate were added 50 μl of purified antibody and 50 μl of human αvβ1 cells labeled with BCECF, and the plate was incubated at room temperature in dark for 1 h. The plate was washed 3-4 times with assay buffer (200 μl/well), and the fluorescence due to adhered cells on the plate was recorded at 485 nm (Excitation) and 538 nm (Emission) wavelength. Percent binding was determined by comparing the fluorescence prior to the final wash step (i.e. total cells added) to that after washing (i.e. bound cells).
B1: the IC50 was less than 1 nM.

As to B2, the IC50 is 1.4 nM. In other words, the single-digit nanomolar range.

For B3, half-maximal inhibition (IC50) required 2.2 nM.

In turn, B4 gave a concentration for half-maximal inhibition (IC50) of 2.8 nM.

The molecule B5 registered an IC50 of 9 nM.

For the molecule B6, the concentration for half-maximal inhibition (IC50) came to 1 nM.

In the case of B7, the IC50 worked out at 1.3 nM. This IC50 and that of the molecule before are within 1.5-fold of each other.

Regarding B8, the IC50 turned out to be 4.3 nM.

For another assay, the target named is T2, αvβ8 integrin on stably transfected cells (human, UniProt P26012 43-769).
T2 construct: whole, on cells
T2 sequence (chain, as listed by the source, chain 1 of 2): as the sequence (P06756 31-1048 limits assumed, chain 1 of 2) above
T2 sequence (P26012 43-769, chain 2 of 2): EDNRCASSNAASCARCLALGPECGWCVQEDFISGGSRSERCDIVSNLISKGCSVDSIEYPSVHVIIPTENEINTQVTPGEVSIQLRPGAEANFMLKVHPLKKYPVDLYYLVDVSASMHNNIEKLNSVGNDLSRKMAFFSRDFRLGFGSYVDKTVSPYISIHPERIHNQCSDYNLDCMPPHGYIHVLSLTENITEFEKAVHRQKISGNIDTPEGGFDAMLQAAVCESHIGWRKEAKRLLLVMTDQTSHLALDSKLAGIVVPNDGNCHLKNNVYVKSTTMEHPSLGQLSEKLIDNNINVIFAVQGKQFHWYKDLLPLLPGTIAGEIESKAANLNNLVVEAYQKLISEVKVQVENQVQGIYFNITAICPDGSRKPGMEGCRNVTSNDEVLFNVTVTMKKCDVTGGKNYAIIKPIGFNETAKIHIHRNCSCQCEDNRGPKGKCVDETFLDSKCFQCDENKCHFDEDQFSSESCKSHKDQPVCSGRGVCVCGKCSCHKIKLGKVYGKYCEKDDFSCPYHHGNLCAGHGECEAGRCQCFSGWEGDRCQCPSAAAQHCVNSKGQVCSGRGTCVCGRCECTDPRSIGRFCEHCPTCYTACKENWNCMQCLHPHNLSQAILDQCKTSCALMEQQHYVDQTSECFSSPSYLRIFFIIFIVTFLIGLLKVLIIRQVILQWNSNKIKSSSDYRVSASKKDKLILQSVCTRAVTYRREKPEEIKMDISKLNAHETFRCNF
Briefly: flow cytometry on stably transfected cells; weak binding observed but incomplete fit to calculate EC50. As to the method:
(§2) Cells were washed in the appropriate assay buffer three times by pelleting at 1500 RPM for 3 minutes and then pouring out supernatant. Assay buffer for this experiment was TBS containing 1 mg/mL BSA and supplemented with either 1 mM Ca+1 mM Mg or with 1 mM Mn. Cells were then resuspended in assay buffer at a concentration of 1.0-1.5×10⁶ cells/mL and transferred to wells of a 96-well assay plate (Corning 3799) in 50 μL aliquots. Plates were then centrifuged at 2000 RPM for 3 minutes to pellet cells and supernatant was flicked out. Cells were resuspended in 100 μL of antibody sample and incubated on ice for 45 to 60 minutes.
(§3) Plates were washed three times in 150 μL assay buffer by pelleting at 2000 RPM for 3 minutes and then flicking out the supernatant. Cells were then resuspended in 50 μL of phycoerythrin-conjugated goat anti-human Fab secondary reagent and incubated on ice in the dark for 30 minutes. Plates were washed three times in 150 μL assay buffer by pelleting at 2000 RPM for 3 minutes and then flicking out the supernatant. Cells were then resuspended in 200 μL of assay buffer+1% polyformaldehyde (PFA) for 30 minutes on ice to fix the cells. Cells were pelleted to remove the PFA and then resuspended in 150 μL assay buffer.
For the molecule B6, the binding result is “binds”.

For the next assay, the target named is T3, α4β1 integrin on cells (human, UniProt P13612 34-1032).
T3 construct: whole, on cells; also called α4β1 on Jurkat cells; stably transfected α4β1 cells
Briefly: Jurkat cell adhesion to VCAM-Ig, confirming the absence of binding to α4β1 cells in Example 3. As to the method: as §1, with “pH 7.4). Jurkat cells were” for “pH 7.4). Stably transfected human αvβ1 cells were”, “centrifuged at 1500 rpm for” for “centrifuged at 1100 rpm for”, “μl of Jurkat cells labeled” for “μl of human αvβ1 cells labeled”
This includes examples for a pan-αv commercial antibody (L230), a pan-β1 commercial antibody (mAb13), a published α4-specific antibody (natalizumab), and the c8 small molecule compound previously published as αvβ1 specific (Reed N I et al, Sci Transl Med, 7(288): 288ra79 (2015)).
For the molecule B1, the binding result was “no binding”.

Consider B2, for which the binding result is listed as “no binding”.

Consider B9, for which the binding result was “no binding”.

For B4, the binding result is given as “no binding”.

A further assay concerns the target T1, human αvβ1 integrin on cells. Briefly: flow cytometry on stably transfected cells, antibody titration (bivalent EC50). As to the method: as §2, §3
On the technique in general: Flow cytometry measures light scatter and fluorescence of single cells or particles in a stream.
B1 registered an EC50 of 1.4 nM. That is a single-digit nanomolar value.

Take B10: it took 2 nM to reach a half-maximal effect (EC50).

The molecule B2 returned an EC50 of 2.8 nM.

The molecule B3 came in with a 50% effective concentration (EC50) of 0.8 nM.

B4 returned an EC50 of 4.9 nM. This EC50 is about 6.1-fold higher than that of the molecule before.

B5 displayed an EC50 of 0.8 nM.

B6: the concentration for a half-maximal effect (EC50) came to 0.4 nM.

Take B7: the midpoint of the response, the EC50, lay at 0.6 nM.

Molecule B8 registered a concentration giving a half-maximal response (EC50) of 1.2 nM. This EC50 lies about 2-fold higher than the previous one.

A further assay deals with αvβ6 integrin on stably transfected cells (human, UniProt P06756 31-1048; P18564 22-788). Described as above. As to the method:
as §2, §3
Molecule B10 showed an EC50 of 16 nM.

The next assay has as its target T2, αvβ8 integrin on stably transfected …. The description is as above. As to the method: as §2, §3
In turn, B10 displayed an EC50 of 10 nM. This lies in the double-digit nanomolar range.

For the molecule B2, the midpoint of the response, the EC50, lay at 2.8 nM. This EC50 lies about 3.6-fold lower than the previous one.

For another assay, the target named is T4, αvβ5 integrin on stably transfected cells (human, UniProt P18084 24-799).
T4 construct: whole, on cells
The description is as above. As to the method: as §2, §3
B10 had an EC50 of 11 nM.

For another assay, the target named is T5, αvβ3 integrin on stably transfected cells (human, UniProt P05106 27-788).
T5 construct: whole, on cells
Described as above. As to the method:
as §2, §3
B1 returned an EC50 of 3.3 nM. This counts as single-digit nanomolar.

Regarding B10, the EC50 turned out to be 13 nM.

Another assay deals with T6, mouse αvβ1 integrin on BLO-11 mouse skeletal muscle fibroblasts (mouse, UniProt P43406 31-1044; P09055 21-798).
T6 construct: whole, on cells; the cells carry other integrins as well; also called BLO-11 (murine fibroblast cells)
T6 sequence (P43406 31-1044, chain 1 of 2): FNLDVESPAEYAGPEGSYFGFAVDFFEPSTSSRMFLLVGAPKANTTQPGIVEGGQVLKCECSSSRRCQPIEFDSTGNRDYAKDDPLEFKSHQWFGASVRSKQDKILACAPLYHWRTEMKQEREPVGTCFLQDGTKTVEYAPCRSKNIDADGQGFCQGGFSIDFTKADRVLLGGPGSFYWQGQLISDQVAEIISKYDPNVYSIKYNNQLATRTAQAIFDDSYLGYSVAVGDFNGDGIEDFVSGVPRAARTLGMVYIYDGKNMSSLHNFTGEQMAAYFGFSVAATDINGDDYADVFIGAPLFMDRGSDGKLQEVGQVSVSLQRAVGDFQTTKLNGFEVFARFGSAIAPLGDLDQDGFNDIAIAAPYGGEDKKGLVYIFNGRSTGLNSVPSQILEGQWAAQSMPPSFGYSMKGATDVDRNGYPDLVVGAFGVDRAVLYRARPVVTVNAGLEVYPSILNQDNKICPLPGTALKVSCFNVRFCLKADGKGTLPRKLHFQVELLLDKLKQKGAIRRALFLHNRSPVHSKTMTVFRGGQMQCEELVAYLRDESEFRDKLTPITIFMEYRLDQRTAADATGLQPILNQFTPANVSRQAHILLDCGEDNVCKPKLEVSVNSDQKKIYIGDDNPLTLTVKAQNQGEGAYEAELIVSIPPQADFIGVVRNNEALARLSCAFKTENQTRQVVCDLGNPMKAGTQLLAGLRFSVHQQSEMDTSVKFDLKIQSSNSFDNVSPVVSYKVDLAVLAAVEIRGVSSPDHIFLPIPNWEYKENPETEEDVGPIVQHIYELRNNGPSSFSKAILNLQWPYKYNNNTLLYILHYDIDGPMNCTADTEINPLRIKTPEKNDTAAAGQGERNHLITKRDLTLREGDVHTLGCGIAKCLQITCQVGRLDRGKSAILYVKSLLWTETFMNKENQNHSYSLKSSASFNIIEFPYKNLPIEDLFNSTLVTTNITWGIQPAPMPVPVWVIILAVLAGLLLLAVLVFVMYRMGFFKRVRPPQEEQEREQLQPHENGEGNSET
T6 sequence (P09055 21-798, chain 2 of 2): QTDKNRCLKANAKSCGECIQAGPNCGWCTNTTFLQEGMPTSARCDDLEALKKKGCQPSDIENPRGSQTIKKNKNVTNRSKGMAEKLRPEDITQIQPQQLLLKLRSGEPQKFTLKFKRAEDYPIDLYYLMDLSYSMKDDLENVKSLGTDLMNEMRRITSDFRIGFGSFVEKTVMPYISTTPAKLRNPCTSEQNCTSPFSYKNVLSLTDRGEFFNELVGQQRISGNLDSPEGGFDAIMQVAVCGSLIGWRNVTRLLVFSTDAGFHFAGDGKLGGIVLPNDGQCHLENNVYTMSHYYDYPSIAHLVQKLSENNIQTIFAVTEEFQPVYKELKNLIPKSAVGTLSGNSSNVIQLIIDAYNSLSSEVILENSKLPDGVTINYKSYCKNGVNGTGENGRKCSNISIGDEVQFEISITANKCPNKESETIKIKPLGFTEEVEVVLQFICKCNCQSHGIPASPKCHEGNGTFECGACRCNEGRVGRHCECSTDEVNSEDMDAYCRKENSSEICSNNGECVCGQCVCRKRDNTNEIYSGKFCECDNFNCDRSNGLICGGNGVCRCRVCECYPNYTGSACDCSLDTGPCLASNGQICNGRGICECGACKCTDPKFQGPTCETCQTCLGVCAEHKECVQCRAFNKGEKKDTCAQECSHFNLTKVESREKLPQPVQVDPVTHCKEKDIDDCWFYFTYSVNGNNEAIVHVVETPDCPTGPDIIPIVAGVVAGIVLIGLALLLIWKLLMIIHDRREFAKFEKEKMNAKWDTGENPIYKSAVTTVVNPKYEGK
The experiment in a line: flow cytometry on BLO-11 mouse skeletal muscle fibroblasts. As to the method:
MRC9 cells were obtained from Sigma (#85020202) and maintained in EMEM (ATCC, #30-2003) supplemented with 10% Fetal Bovine Serum (FBS from Gibco, #16000-077). BLO-11 cells were obtained from ATCC (#CCL-198) and maintained in DMEM (ATCC, #30-2002) supplemented with 10% FBS. Cells were harvested by incubating with cell dissociation buffer (Gibco, #13150-016) at 37° C. for 10 min and then washed with FACS buffer containing CaCl₂) and MgCl₂ (FACS⁺⁺ buffer; PBS+1% BSA+1 mM CaCl₂)+1 mM MgCl₂). All staining and wash steps were performed at 4° C. in FACS⁺⁺ buffer. In a 96 well U bottom plate, 0.75×10⁶ cells per well were plated and then spun down to remove supernatant. Cells were then resuspended in serially diluted primary antibody and incubated for 30 min. After incubation, cells were washed twice and then incubated with α-human IgG Alexa Fluor 647 (Invitrogen, #A21445) secondary antibody for another 30 min. Cells were then washed twice and fixed with 1% PFA diluted in PBS for 30 min, followed by a final wash. Fluorescence activated cell sorting (FACS) analysis was performed using a five-laser BD LSR-II flow cytometer (BD Biosciences, San Jose, Calif., USA), and data were analyzed using FlowJo software v9 (Treestar, Ashland, Oreg., USA) and transferred into analysis and graphic software including GraphPad Prism 7 (La Jolla, Calif., USA).
Regarding B1, the binding result is on record as “binds”.

B2: the binding result is “binds”.

B4: the binding result is “binds”.

What is called IC50 is the concentration at which inhibition is half-maximal. Lower therefore signals higher potency. By EC50 is commonly meant the concentration at which the effect is half-maximal. A lower EC50 goes with an effect from little substance.
